Experimental data as given in US11994512B2, “Single-cell genomic methods to generate ex vivo cell systems that recapitulate in vivo biology with improved fidelity” (Massachusetts Institute of Technology, priority 2018, dated 2024).

Test system: intracellular proteome of ENR+CD and ENR organoids
Assay: LC-MS/MS TMT proteomics of ENR+CD versus ENR organoids
Assay type: cell-based, C57BL/6 mice
Conditions: for Average logFC / M1-1 Log2 Median Normalized / M1-2 Log2 Median Normalized / M2-1 Log2 Median Normalized / M2-2 Log2 Median Normalized: protein abundance, ENR+CD versus ENR organoids; for Average logFC: aggregate of the four sample pairs; for M1-1 Log2 Median Normalized: replicate M1-1; for M1-1 Log2 Median Normalized / M1-2 Log2 Median Normalized / M2-1 Log2 Median Normalized / M2-2 Log2 Median Normalized: log2 ratio; for M1-2 Log2 Median Normalized: replicate M1-2; for M2-1 Log2 Median Normalized: replicate M2-1; for M2-2 Log2 Median Normalized: replicate M2-2; for change: up = enriched in ENR+CD, down = enriched in ENR, FDR<0.05 and log fold change cut-off

Row | Molecule | Average logFC | M1-1 Log2 Median Normalized | M1-2 Log2 Median Normalized | M2-1 Log2 Median Normalized | M2-2 Log2 Median Normalized | change
1 | P52792 (protein, UniProt P52792 1-465, looked up, full-length) MLDDRARMEATKKEKVEQILAEFQLQEEDLKKVMSRMQKEMDRGLKLETHQEASVKMLPTYVRSTPEGSEVGDFLSLDLGGTNFRVMLVKVGEGEAGQWSVKTKHQMYSIPEDAMTGTAEMLFDYISECISDFLDKHQMKHKKLPLGFTFSFPVRHEDIDKGILLNWTKGFKASGAEGNNIVGLLRDAIKRRGDFEMDVVAMVNDTVATMISCYYEDRQCEVGMIVGTGCNACYMEEMQNVELVEGDEGRMCVNTEWGAFGNSGELDEFLLEYDRMVDESSVNPGQQLYEKIIGGKYMGELVRLVLLKLVEENLLFHGEASEQLRTRGAFETRFVSQVESDSGDRRQILNILSTLGLRPSVADCDIVRRACESVSTRAAHMCSAGLAGVINRMRESRSEDVMRITVGVDGSVYKLHPSFKERFHASVRRLTPNCEITFIESEEGSGRGAALVSAVACKKACMLGQ | 1.166 | 1.847 | 0.711 | 1.3025 | 0.805 | up
2 | P50431 (protein, UniProt P50431 1-478, looked up, full-length) MADRDATLWASHEKMLSQPLKDSDAEVYSIIKKESNRQRVGLELIASENFASRAVLEALGSCLNNKYSEGYPGQRYYGGTEFIDELEMLCQKRALQAYHLDPQCWGVNVQPYSGSPANFAVYTALVEPHGRIMGLDLPDGGHLTHGFMTDKKKISATSIFFESMPYKVYPETGYINYDQLEENASLFHPKLIIAGTSCYSRNLDYARLRKIADDNGAYLMADMAHISGLVAAGVVPSPFEHCHVVTTTTHKTLRGCRAGMIFYRKGVRSVDPKTGKETYYELESLINSAVFPGLQGGPHNHAIAGVAVALKQAMTTEFKIYQLQVLANCRALSDALTELGYKIVTGGSDNHLILMDLRSKGTDGGRAEKVLEACSIACNKNTCPGDKSALRPSGLRLGTPALTSRGLLEEDFQKVAHFIHRGIELTLQIQSHMATKATLKEFKEKLAGDEKIQSAVATLREEVENFASNFSLPGLPDF | −1.162 | −1.382 | −1 | −1.1875 | −1.08 | down
3 | P50543 (protein, UniProt P50543 1-98, looked up, full-length) MPTETERCIESLIAVFQKYSGKDGNNTQLSKTEFLSFMNTELAAFTKNQKDPGVLDRMMKKLDLNCDGQLDFQEFLNLIGGLAIACHDSFIQTSQKRI | 1.372 | 1.371 | 1.475 | 1.4645 | 0.855 | up
4 | P52800 (protein, UniProt P52800 1-336, looked up, full-length) MAMARSRRDSVWKYCWGLLMVLCRTAISRSIVLEPIYWNSSNSKFLPGQGLVLYPQIGDKLDIICPKVDSKTVGQYEYYKVYMVDKDQADRCTIKKENTPLLNCARPDQDVKFTIKFQEFSPNLWGLEFQKNKDYYIISTSNGSLEGLDNQEGGVCQTRAMKILMKVGQDASSAGSARNHGPTRRPELEAGTNGRSSTTSPFVKPNPGSSTDGNSAGHSGNNLLGSEVALFAGIASGCIIFIVIIITLVVLLLKYRRRHRKHSPQHTTTLSLSTLATPKRGGNNNGSEPSDVIIPLRTADSVFCPHYEKVSGDYGHPVYIVQEMPPQSPANIYYKV | −1.24 | −0.883 | −1.258 | −1.7545 | −1.065 | down
5 | P51162 (protein, UniProt P51162 1-128, looked up, full-length) MAFSGKYEFESEKNYDEFMKRLGLPGDVIERGRNFKIITEVQQDGQDFTWSQSYSGGNIMSNKFTIGKECEMQTMGGKKFKATVKMEGGKVVAEFPNYHQTSEVVGDKLVEISTIGDVTYERVSKRLA | −1.573 | −0.519 | −1.799 | −2.7635 | −1.209 | down
6 | P51432 (protein, UniProt P51432 1-1234, looked up, full-length) MAGARPGVHALQLEPPTVVETLRRGSKFIKWDEEASSRNLVTLRVDPNGFFLYWTGPNMEVDTLDISSIRDTRTGRYARLPKDPKIREVLGFGGPDTRLEEKLMTVVAGPDPVNTTFLNFMAVQDDTVKVWSEELFKLAMNILAQNASRNTFLRKAYTKLKLQVNQDGRIPVKNILKMFSADKKRVETALESCGLNFNRSESIRPDEFPLEIFERFLNKLCLRPDIDKILLEIGAKGKPYLTLEQLMDFINQKQRDPRLNEVLYPPLRSSQARLLIEKYETNKQFLERDQMSMEGFSRYLGGEENGILPLEALDLSMDMTQPLSAYFINSSHNTYLTAGQLAGPSSVEMYRQALLWGCRCVELDVWKGRPPEEEPFITHGFTMTTEVPLRDVLEAIAEAAFKTSPYPVILSFENHVDSAKQQAKMAEYCRSIFGDALLIDPLDKYPLSAGIPLPSPQDLMGRILVKNKKRHRPSTGVPDSSVRKRPLEQSNSALSESSAATEPSSPQLGSPSSDSCPGLSNGEEVGLEKTSLEPQKSLGEESLSREPNVPMPDRDREDEEEDEEEEETTDPKKPTTDEGTASSEVNATEEMSTLVNYVEPVKFKSFEAARKRNKCFEMSSFVETKAMEQLTKSPMEFVEYNKQQLSRIYPKGTRVDSSNYMPQLFWNVGCQLVALNFQTLDLPMQLNAGVFEYNGRSGYLLKPEFMRRPDKSFDPFTEVIVDGIVANALRVKVISGQFLSDKKVGIYVEVDMFGLPVDTRRKYRTRTSQGNSFNPVWDEEPFDFPKVVLPTLASLRIAAFEEGGKFVGHRILPVSAIRSGYHYVCLRNEANQPLCLPALLIYTEASDYIPDDHQDYAEALINPIKHVSLMDQRAKQLAALIGESEAQASTETYQETPCQQPGSQLPSNPTPNPLDASPRWPPGPTTSSTSSSLSSPGQRDDLIASILSEVTPTPLEELRSHKAMVKLRSRQDRDLRELHKKHQRKAVALTRRLLDGLAQARAEGKCRPSPSALGKATNSEDVKEEEEAKQYREFQNRQVQSLLELREAQADVETKRKLEHLRQAHQRLKEVVLDTHTTQFKRLKELNEREKKELQKILDRKRNNSISEAKTREKHKKEVELTEINRRHITESVNSIRRLEEAQKQRHERLVAGQQQVLQQLEEEEPKLLAQLTQECQEQRERLPQEIRRCLLGETAEGLGDGPLVACASNGHAPGSGGHLSSADSESQEENTQL | −1.187 | −1.261 | −1.255 | −1.1345 | −1.096 | down
7 | P48756 (protein, UniProt P48756 1-144, looked up, full-length) MVALKTCSLLLVLLFLAVGLGEKEEVEFRSHAKFAGPRPRGPRYAEGTFISDYSIAMDKIRQQDFVNWLLAQRGKKSDWKHNITQREARALVLAGQSQGKEDKEAQESSLPKSLSDDDVLRDLLIQELLAWMVDQTELCRLRSQ | 1.212 | 1.21 | 0.504 | 1.2845 | 1.769 | up
